Measurements from patent US20240368233A1 (University of Washington, published 2024).

Experiments:
TF3 = target: T1, TF3; experiment: SEC of the trivalent connector TF3, its three caps and the full mixture, with SDS-PAGE of the fractions; components named in the legend
T1 construct: Trivalent connector
T1 chain: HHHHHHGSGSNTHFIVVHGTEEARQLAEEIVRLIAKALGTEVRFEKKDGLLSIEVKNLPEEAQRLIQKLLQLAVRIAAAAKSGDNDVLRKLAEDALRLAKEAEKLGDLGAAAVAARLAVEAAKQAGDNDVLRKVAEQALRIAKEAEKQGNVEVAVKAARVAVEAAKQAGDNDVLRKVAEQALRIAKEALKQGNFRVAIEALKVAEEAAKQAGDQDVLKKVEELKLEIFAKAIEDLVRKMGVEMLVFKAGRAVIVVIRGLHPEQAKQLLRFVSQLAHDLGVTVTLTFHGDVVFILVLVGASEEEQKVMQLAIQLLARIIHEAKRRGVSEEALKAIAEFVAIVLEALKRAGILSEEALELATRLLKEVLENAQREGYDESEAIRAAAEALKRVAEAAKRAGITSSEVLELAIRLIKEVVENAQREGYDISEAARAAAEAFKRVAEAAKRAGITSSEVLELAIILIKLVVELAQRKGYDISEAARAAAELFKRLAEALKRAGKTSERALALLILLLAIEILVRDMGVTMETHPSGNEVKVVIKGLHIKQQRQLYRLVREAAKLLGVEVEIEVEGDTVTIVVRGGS

DFB0 = target: T2, DFB0; experiment: SEC of mixed components; trimer listed in Table 6
T2 construct: Bivalent connector
T2 chain: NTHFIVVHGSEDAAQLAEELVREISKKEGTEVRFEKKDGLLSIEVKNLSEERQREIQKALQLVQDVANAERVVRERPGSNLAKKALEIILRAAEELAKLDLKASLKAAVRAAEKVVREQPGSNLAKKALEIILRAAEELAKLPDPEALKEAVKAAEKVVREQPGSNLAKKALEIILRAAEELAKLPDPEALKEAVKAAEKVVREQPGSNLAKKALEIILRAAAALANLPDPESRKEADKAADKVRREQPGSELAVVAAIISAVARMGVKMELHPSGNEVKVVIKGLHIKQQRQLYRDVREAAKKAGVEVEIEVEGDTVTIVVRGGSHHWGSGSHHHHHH

DFB-1 = target: T3, DFB-1; experiment: SEC of mixed components; trimer listed in Table 6
T3 construct: Bivalent connector
T3 chain: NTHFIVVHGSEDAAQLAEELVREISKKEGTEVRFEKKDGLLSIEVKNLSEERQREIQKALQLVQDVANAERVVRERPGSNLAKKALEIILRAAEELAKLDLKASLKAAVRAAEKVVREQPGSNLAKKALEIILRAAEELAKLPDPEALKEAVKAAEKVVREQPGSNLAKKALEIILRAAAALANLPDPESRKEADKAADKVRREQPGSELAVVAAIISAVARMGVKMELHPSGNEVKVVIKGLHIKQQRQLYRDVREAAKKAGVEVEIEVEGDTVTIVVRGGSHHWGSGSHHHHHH

TF10 = target: T4, TF10; experiment: SEC (A230) of A---, -BCD and ABCD and negative-stain EM; components named in the legend of FIG. 17A, which paragraph 104 ties to FIG. 4A
T4 construct: Trivalent connector
T4 chain: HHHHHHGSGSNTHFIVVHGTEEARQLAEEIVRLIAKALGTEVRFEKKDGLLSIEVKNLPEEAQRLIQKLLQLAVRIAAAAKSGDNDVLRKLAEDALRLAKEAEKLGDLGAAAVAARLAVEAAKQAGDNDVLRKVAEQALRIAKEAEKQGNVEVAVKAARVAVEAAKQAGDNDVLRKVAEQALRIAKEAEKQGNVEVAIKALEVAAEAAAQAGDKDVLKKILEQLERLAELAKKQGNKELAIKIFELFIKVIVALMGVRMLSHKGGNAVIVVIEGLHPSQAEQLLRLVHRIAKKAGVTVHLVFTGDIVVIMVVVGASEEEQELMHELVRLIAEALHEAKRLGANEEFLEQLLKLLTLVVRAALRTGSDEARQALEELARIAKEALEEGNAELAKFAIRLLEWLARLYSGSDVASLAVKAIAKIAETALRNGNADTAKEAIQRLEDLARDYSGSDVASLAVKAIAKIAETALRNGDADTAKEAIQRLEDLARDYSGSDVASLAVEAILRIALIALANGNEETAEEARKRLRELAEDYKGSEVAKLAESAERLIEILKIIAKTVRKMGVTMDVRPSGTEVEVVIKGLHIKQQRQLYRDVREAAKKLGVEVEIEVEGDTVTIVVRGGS
Description: Complexes and individual components were diluted in 20 mM Tris pH 8.0, 100 mM NaCl. After o/n equilibration of the mixtures at room temperature or 4 degrees C., 500 ul of sample was injected onto a Superdex™ 200 10/300 increase GL (dimers, linear assemblies) or Superose™ 6 increase 10/300 GL (symmetric assemblies) (all columns from GE healthcare) using the absorbance at 230 nm or 473 nm (for GFP tagged components) as read-out. Dimers were mixed at monomer concentrations of 5 μM or higher. Trimer and ABCD tetramer mixtures contained 5 μM of the bivalent connector, and 7.5 μM of each terminal cap (lower absolute concentrations with the same ratios were used for some trimers). ABCA tetramer mixtures contained 5 μM per bivalent connector and 15 μM terminal cap. The hexamer mixture contained 3 μM of components C and D, 3.6 μM of B and E, and 4.4 μM of A and F. The branched assembly shown in FIG. 4A contained 2.8 μM of the trivalent connector and 4 μM of each cap. For the exchange experiment shown in FIG. 5A, the ABC trimer was preincubated at concentrations of 6 μM B and 9 μM each of A and C. C′ was then added to reach a final concentration of 2 μM B, 3 μM each of A and C, and 6 μM C′.
SEC peak fractions were concentrated prior to negative stain EM screening. Samples were then immediately diluted 5 to 150 times in TBS buffer (25 mM Tris pH 8.0, 25 mM NaCl) depending on sample concentration. A final volume of 5 μL was applied to negatively glow discharged, carbon-coated 400-mesh copper grids (01844-F, TedPella, Inc.), then washed with Milli-Q™ Water and stained using 0.75% uranyl formate as previously described (53). Air-dried grids were imaged on a FEI Talos L120C TEM (FEI Thermo Scientific, Hillsboro, OR) equipped with a 4K×4K Gatan OneView™ camera at a magnification of 57,000× and pixel size of 2.51. Micrographs were imported into CisTEM software or cryoSPARC™ software and a circular blob picker was used to select particles which were then subjected to 2D classification. […]

Measured: binding result

B1: 101B62 (designed binder)
chain: HHHHHHGSGLNDIFEAQKIEWHEAENLYFQSGSNDEKRKRAEKALQRAQEAEKKGDVEEAVRAAQEAVRAAKESGDNDVLRKVAEQALRIAKEAEKQGNVEVAVKAARVAVEAAKQAGDNDVLRKVAEQALRIAKEALKQGNVDVAAKAAQVAEEAAKQAGDQDVLRKVKEVQIEIVLAAIELTVRKMGVTMETHRSGREVKVVIKGLHESQQEQLLEDVLRIAELAGVRVRIRFKGDTVTIVVRG
notes: also called LHD101B62
binds: TF3 | DFB0 | DFB-1 | TF10

B2: 274A53 (designed binder)
chain: TTNFHLINGSEEARQLIEKAVRAISKKEGTEVHFEKSDGTLEIRVKNLHEKREREIKKVIELILEVAAAERIVRERPGSNLAKKALEIILRAAEELAKADVDAALEAAVRAAEKVVREQPGSNLAKKALEIILRAAEELAKLPDPEALKEAVKAAEKVVREQPGSELAKKALEIIERAAEELKKSPDPEAQKEAKKAEQKVREESGSHHWGSGLNDIFEAQKIEWHEGSHHHHHH
notes: also called LHD274A DHR53 stop; LHD274A53
binds: TF3 | DFB0 | DFB-1 | TF10
